From patent US8440804B2, “Polypeptides having modulatory effects on cells” (Ecole Normale Superieure de Lyon, priority 2006, dated 2013)
Where a chain is given by its changes, count along the chain named. Values belong to the molecule of their own block, whether it stands above or below them.

What was measured:
[1] = system: Hela cells; assay: Colony formation assay (cell proliferation assay, crystal violet); assay type: cell-based; conditions: continuous expression 2 weeks, compared to AptaLib and human thioredoxin
Protocol: (§1) (B) Colony formation assays. Hela or MCF-7 cells were transfected with plasmids directing the stable expression of the Cdk inhibitor p21, a library of peptide aptamers from pBK1 (AptaLib), Human thioredoxin (HTRX), and peptide aptamers R7G44, R5G42, R5G52. The cells were cultured for two weeks and the colonies were stained with crystal violet.
(§2) The inventors wished to establish the antiproliferative activity of these peptide aptamers using alternative cellular models and a non-retroviral vector to express individually each aptamer. They cloned the aptamer coding genes into a vector bearing a hygromycin selection marker. They also subcloned the pBK1 library into this vector, to create “AptaLib”. They continuously expressed the aptamers, the empty thioredoxin scaffold or AptaLib in Hela and MCF-7 cells for 2 weeks and they stained the cells that grew. […] These aptamers may originate from the remaining background of slowly proliferating cells during the seventh screening iteration, independently of the expressed aptamers. […] This could be due to the fact that the CMTMR assay is more sensitive in detecting modest antiproliferative effects than the colony formation assay or that some peptide aptamers somehow enhance the CMTMR labeling of their host cells.
(§3) To stably express peptide aptamers in mammalian cells, the episomal eukaryotic expression vector pCEP4 that bears a CMV promoter and a hygromycin selection marker (InVitrogen) was used. Aptamer coding sequences were PCR amplified using the oligonucleotides
(§4) that contained a stop codon. The PCR products were digested with NheI and NotI and ligated into NheI/NotI-cut pCEP4 to create pEA-aptamer plasmids. 3×10^5 cells/well were plated in 6-well plates and transfected 24 h after using Jet PEI (Qbiogen), 3.7 μg pEA-aptamer plasmids and 0.3 μg pEGFP-C1 (Clontech) to monitor transfection. Hygromycin (InVitrogen) was added at 200 μg/ml two days later and the cells were cultured for 2 weeks, renewing the medium twice a week. The cells were then rinsed in PBS and were fixed and stained by incubating 30 min in crystal violet (0.05% crystal violet, 20% ethanol, 0.37% formaldehyde). Excess crystal violet was removed by washing with water. In Vitro Phosphatase Assay

[2] = system: MCF-7 cells; assay: as above; assay type: cell-based; conditions: MCF-7, continuous expression 2 weeks, compared to AptaLib and human thioredoxin
Protocol: as §1, §2, §3, §4

[3] = biological target: T1, CNA beta C-terminal fragment (Homo sapiens, UniProt P16298); assay: Yeast two-hybrid assays of R5G42 mutants; assay type: binding; conditions: plasmids pSH18-34, pJK103, pRB18-40
T1 construct: expressed in transfected cells; host or cells: yeast (MB210a transformed with library plasmid, mated with bait strain)
Protocol: (§5) The capacity of R5G42 mutants having a one amino acid change as compared to R5G42 to bind CNA beta and gamma C-Terminal fragments (FIG. 3b) and NS5A-TP2 was tested in yeast two-hybrid assays. CNA beta and gamma C-Terminal fragments and NS5A-TP2 were cloned in three different vectors (pSH18-34, pJK103 and pRB18-40). These three plasmids differ from each other in the level of sensitivity of their promoter, pSH18-34 having the highest sensitivity and pRB18-40 having the lowest.
(§6) The inventors explored the ability of R5G42 mutants having a one amino acid change as compared to R5G42, to bind to CNA beta and gamma C-Terminal fragments (FIG. 3b) and to NS5A-TP2. To this end, they proceeded to yeast-two hybrid assays as in example 3. CNA beta and gamma C-Terminal fragments (FIG. 3b) and NS5A-TP2 were cloned in three different plasmids (pSH18-34, pJK103 and pRB18-40), which differed from each other in the level of sensitivity of their promoter to the bait/prey complex formation, pSH18-34 having the highest sensitivity and pRB18-40 having the lowest.

[4] = system: CNA gamma C-terminal fragment; assay: Yeast two-hybrid assays of R5G42 mutants; assay type: binding, human; conditions: plasmids pSH18-34, pJK103, pRB18-40
Sequence of CNA gamma C-terminal fragment (P48454 386-512 limits assumed): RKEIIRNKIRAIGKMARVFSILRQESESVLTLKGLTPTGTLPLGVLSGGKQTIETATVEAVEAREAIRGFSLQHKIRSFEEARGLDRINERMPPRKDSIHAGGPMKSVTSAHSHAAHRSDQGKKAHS
Protocol: as §5, §6

[5] = biological target: T2, NS5A-TP2 (Homo sapiens, UniProt Q7Z4H3); assay: Further yeast two-hybrid binding assays (higher sensitivity)
T2 construct: expressed in transfected cells; host or cells: yeast
T2 sequence (Q7Z4H3 1-204): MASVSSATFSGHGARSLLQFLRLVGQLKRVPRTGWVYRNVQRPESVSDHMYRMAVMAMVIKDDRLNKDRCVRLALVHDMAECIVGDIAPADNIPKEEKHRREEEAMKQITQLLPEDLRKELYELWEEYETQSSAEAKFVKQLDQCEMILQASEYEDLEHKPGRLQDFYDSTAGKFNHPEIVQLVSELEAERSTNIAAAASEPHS
Text: FIG. 14. Specificity of aptamers according to the invention for CNA and NS5A-TP2 Interaction matrix between peptide aptamers R5G42, C2, C7, C8, N9, R5G44 and R5G52 with CNA constructs CNA1-CNA8 (A) CNA9-11 (B) and NS5A-TP2 (C). An interaction phenotype between CNA3/CNA 11, which both contain the Calmodulin binding domain (CaM) and the auto-inhibitory domain (Al) but not the CNB binding domain (CNB) and the aptamers R5G42, C2, C7, C8 and N9 is observed in a two-hybrid assay. R5G44 and R5G52 aptamers recognize neither the CNA fragments, nor NS5A-TP2. Only aptamers R5G42 and N9 recognize NS5A-TP2.
The inventors proceeded to further yeast two-hybrid binding assays between peptide aptamers R5G42 (SEQ ID 22), C2 (SEQ ID 23), C7 (SEQ ID 27), C8 (SEQ ID 28), N9 (SEQ ID 33), R5G44 and R5G52 with CNA constructs CNA1-CNA8 (FIG. 14A), CNA9-CNA11 (FIG. 14B) and NS5A-TP2 (SEQ ID 15) (FIG. 14C). The sensitivity of this yeast two-hybrid assay was higher than in the experiment reported above.

[6] = system: Raw1 cells (osteoclasts precursors); assay: Raw cell differentiation assay (osteoclast differentiation); assay type: cell-based
Text: Trx, CNA* and Peptide aptamers R5G42, C2, C7, C8 and N9 were transfected into RAW1 cells and left for four days in absence of the normal differentiation factor RANKL. CNA* is activated calcineurin A which elicits a robust differentiation response.
The inventors assessed the ability of some CNA-specific peptide aptamers to promote osteoclast differentiation via the activation of CNA. […] The differentiation state was then observed 4 days post-transfection.
Raw1 cells were transfected with the following plasmids: pCI-HA-Trx (negative control), pCI-HA CNA* (positive control for differentiation activation), pCI-HA R5G42, pCI-HA R5G42-C2, pCI-HA R5G42-C7, pCI-HA R5G42-C8 and pCI-HA R5G42-N9. The sequence of CNA* is the same as that of CNA8 (see FIG. 17, SEQ ID 42). The sequences of the R5G42 (SEQ ID 22), C2 (SEQ ID 23), C7 (SEQ ID 27), C8 (SEQ ID 28) and N9 (SEQ ID 33) aptamers is shown on FIG. 8.
One day before the transfection, Raw I cells were plated in 6-well dishes at 50 cell/mm^2. Transfection was performed with FuGene 6 Reagent (Roche) using 2 μg of each plasmid and following supplier recommendations.
8 h after transfection D-MEM was changed with α-MEM. In the control dishes α-MEM+50 ng/ml RANKL was added. After 2 days, medium was changed with a fresh medium. The differentiation state was then observed 4 days post-transfection.

[7] = 4 days post-transfection, absence of RANKL

Molecule: R7G11: peptide aptamer: variable region LHLAGRGWEN in human thioredoxin (SEQ ID 30) (Aptamer variable sequence of R7G11)
inhibition of cell proliferation (colony formation) [1]: did not inhibit cell proliferation
inhibition of cell proliferation (colony formation) [2]: did not inhibit cell proliferation

yeast two-hybrid interaction [3]: shown to interact
B1: C2: R5G42 mutant having a one amino acid change (SEQ ID 23) (protein)
chain: MVKQIESKTAFQEALDAAGDKLVVVDFSATWCGPSAVTFAVCALGPCKMIKLFFHSLSEKYSNVIFLEVDVDDCQDVASECEVKCMPTFQFFKKGQKVGEFSGANKEKLEATINELV
modifications: Aptamer R5G42 mutant C2
yeast two-hybrid interaction [4]: shown to interact
recognition of NS5A-TP2 [5]: only aptamers which recognized NS5A-TP2 were R5G42 and N9
osteoclast differentiation [6, 7]: no osteoclasts fully differentiated were detectable

yeast two-hybrid interaction [3]: shown to interact
B2: C8: R5G42 mutant having a one amino acid change (SEQ ID 28) (protein)
chain: B1 chain with F39I, L52P
modifications: Aptamer R5G42 mutant C8
yeast two-hybrid interaction [4]: shown to interact
recognition of NS5A-TP2 [5]: only aptamers which recognized NS5A-TP2 were R5G42 and N9
osteoclast differentiation [6, 7]: no osteoclasts fully differentiated were detectable

yeast two-hybrid interaction [3]: shown to interact
B3: C7: R5G42 mutant having a one amino acid change (SEQ ID 27) (protein)
chain: B1 chain with L22P, L52P
modifications: Aptamer R5G42 mutant C7
yeast two-hybrid interaction [4]: shown to interact
recognition of NS5A-TP2 [5]: only aptamers which recognized NS5A-TP2 were R5G42 and N9
osteoclast differentiation [6, 7]: Some cells with the osteoclast phenotype can be observed

B4: receptor activator of nuclear factor (NF)-κB ligand (protein, UniProt O14788 140-317, looked up)
Tumor necrosis factor ligand …: IRAEKAMVDGSWLDLAKRSKLEAQPFAHLTINATDIPSGSHKVSLSSWYHDRGWAKISNMTFSNGKLIVNQDGFYYLYANICFRHHETSGDLATEYLQLMVYVTKTSIKIPSSHTLMKGGSTKYWSGNSEFHFYSINVGGFFKLRSGEEISIEVSNPSLLDPDQDATYFGAFKVRDID
notes: TNF family cytokine, normal osteoclast differentiation factor
osteoclast differentiation ([6]; control conditions, 50 ng/ml RANKL): differentiated into osteoclasts
